Results as given in patent publication US20130095104A1 (OMEROS, published 2013).

Tests used:
[1] = target: T1, human Frizzled-10 (FZD10) (human, UniProt Q9ULW2 21-581); assay: saturation binding of recombinant antibody on SYO-1 cells (FZD10+), flow cytometry MFI against Ab (nM)
T1 construct: no signal peptide limits are stated; also called FZ10; CD350
T1 sequence: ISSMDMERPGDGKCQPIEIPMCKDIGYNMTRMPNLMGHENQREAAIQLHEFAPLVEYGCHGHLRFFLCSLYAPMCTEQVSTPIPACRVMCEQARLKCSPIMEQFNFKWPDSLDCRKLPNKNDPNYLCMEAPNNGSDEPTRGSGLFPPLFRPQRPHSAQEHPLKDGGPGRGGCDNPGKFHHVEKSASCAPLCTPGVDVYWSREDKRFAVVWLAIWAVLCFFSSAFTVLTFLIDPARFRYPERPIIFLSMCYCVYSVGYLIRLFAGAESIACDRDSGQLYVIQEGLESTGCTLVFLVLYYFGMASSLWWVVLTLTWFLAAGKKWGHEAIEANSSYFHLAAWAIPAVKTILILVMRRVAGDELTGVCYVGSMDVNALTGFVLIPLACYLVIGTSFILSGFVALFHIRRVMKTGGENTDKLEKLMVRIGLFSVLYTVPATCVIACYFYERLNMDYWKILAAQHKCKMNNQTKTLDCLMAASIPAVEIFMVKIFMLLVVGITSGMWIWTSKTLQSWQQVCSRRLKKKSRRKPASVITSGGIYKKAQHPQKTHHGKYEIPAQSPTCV
Experimental: Affinity was determined by measuring saturation binding kinetics of the recombinant antibodies on SYO-1 cells.

[2] = target: T1, human Frizzled-10 (FZD10); assay: saturation binding of recombinant antibody on SYO-1 cells; Table 2 comparison with the humanized antibody
[3] = target: T1, human Frizzled-10 (FZD10); assay: saturation binding on SYO-1 cells, flow cytometry; B9L9.3 on SYO-1 cells, Example 1 (FIG. 3)
Experimental: (§1) Recombinant antibodies were generated by cloning PCR-amplified V regions (Cummings et al., 2007 Supra) into a vector that supported expression of human IgG1 in 293F cells. Saturation binding kinetics were determined by either staining FZD10-specific DTLacO cells with various concentrations of fluorescent-labeled soluble antigen, or by staining FZD10-transfected cells or cancer cell lines intrinsically expressing FZD10 with various concentrations of the recombinant chimeric anti-FZD10 mAbs. To assay cell surface FZD10 binding, cells were stained with chimeric mAb clones B9A5 (parent), B9132.2 and B9L9.3 (progeny) or secondary antibody alone, all at concentrations ranging from […] to 800 nM, and analyzed by immunocytofluorimetry.

[4] = target: T1, human Frizzled-10 (FZD10); assay: saturation binding of recombinant antibody on SYO-1 cells
[5] = target: T1, human Frizzled-10 (FZD10); assay: saturation binding on SYO-1 cells, flow cytometry; B9L32.2 on SYO-1 cells
Experimental: as §1

B1: chimeric anti-FZD10 mAb B9L9.3 (antibody, V domains shown)
VH: AVTLDESGGGLQTPGGALSLVCKASGFTFSSFNMFWVRQEPGKGLEWVAGIDDDGSYPNYGSAVKGRATISRDNGQSTLRLQLNNLRAEDTGTYFCAKSGYGGSWGGYIADDIDAWGHGTEVIVSS
VL: ALTQPASVSANPGETVKITCSGDGSYAGSYYYGWYQQKAPGSAPVTLIYYNNKRPSDIPSRFSGSLSGSTNTLTITGVRADDEAVYFCGSADNSGAAFGAGTTLTVL
notes: also called Chimeric B9L9.3; progeny clone B9L9.3
In the case of B1, the “EC50 (read off the curve)” value [1] is reported as roughly 0.1 nM, the Kd [2] is reported as 0.16 nM and the Kd [3] is reported as 0.22 nM.

B2: humanized B9L9.3 antibody (antibody, human IgG1, lambda, V domains shown)
VH: EVQLVESGGGLVQPGGSLRLSCAASGFTFSSFNMFWVRQAPGKGLEWVAGIDDDGSYPNYGSAVKGRATISRDNSKNTLYLQMNSLRAEDTAVYYCAKSGYGGSWGGYIADDIDAWGQGTLVTVSS
VL: ELTQPPSVSVSPGQTARITCSGDGSYAGSYYYGWYQQKPGQAPVTLIYYNNKRPSGIPERFSGSLSGSTNTLTISGVQAEDEADYYCGSADNSGAAFGGGTKLTVLG
notes: Mature humanized heavy chain with human IgG1 constant region and mature humanized light chain with human lambda constant region; also called hB9L9.3; humanized B9L9.3 mAb
In the case of B2, the “EC50 (read off the curve)” value [1] is reported as roughly 0.2 nM and the Kd [4] is reported as 0.22 nM.

B3: chimeric anti-FZD10 mAb B9L32.2 (antibody, human IgG1, V domains shown)
VH: B1 VH
VL: ALTQPASVSANPGETVKITCSGSDSSYAGSYYYGWYQQKAPGSAPVTLIYYNNKRPSDIPSRFSGSLSGSTNTLTITGVRADDEAVYFCGSADNSGAAFGAGTTLTVL
notes: also called progeny clone B9L32.2
Binder B3 has a Kd [5] of 40 nM.
